Like-named read-outs stand apart in the source and are kept apart here.
Assays:
[1] = target: α1B-1α2bβ1-3 human neuronal calcium channel (human) (UniProt Q02641); assay: Bmax of 125I-ω-CgTx GVIA binding, against α1B-1β1-3
[2] = target: α1B-2α2bβ1-2 human neuronal calcium channel (human) (UniProt Q02641); assay: Bmax of 125I-ω-CgTx GVIA binding, against α1B-2β1-2
[3] = target: α1B-2α2bβ1-3 human neuronal calcium channel (human) (UniProt Q02641); assay: Bmax of 125I-ω-CgTx GVIA binding, against α1B-2β1-3
[4] = target: α1B-1α2bβ1-3 human neuronal calcium channel (human) (UniProt Q02641); assay: Bmax of 125I-ω-CgTx GVIA binding, against α1B-1α2bβ1-2
[5] = target: α1B-2α2bβ1-3 human neuronal calcium channel (human) (UniProt Q02641); assay: Bmax of 125I-ω-CgTx GVIA binding, against α1B-2α2bβ1-2
[6] = target: α1B-1α2bβ1-2 human neuronal calcium channel (human) (UniProt Q02641); assay: as above
[7] = target: α1B-1α2bβ1-2 human neuronal calcium channel (human) (UniProt Q02641); assay: Bmax of 125I-ω-CgTx GVIA binding, against α1B-1β1-2
[8] = target: α1B-2α2bβ1-3 human neuronal calcium channel (human) (UniProt Q02641); assay: saturation binding of 125I-ω-CgTx GVIA to transfected HEK293 cells
[9] = target: α1B-1β1-3 human neuronal calcium channel subunit combination (human) (UniProt Q02641); assay: as above
[10] = target: α1B-1α2bβ1-3 human neuronal calcium channel (human) (UniProt Q02641); assay: as above
[11] = target: α1B-1α2bβ1-2 human neuronal calcium channel (human) (UniProt Q02641); assay: as above
[12] = target: α1B-2β1-2 human neuronal calcium channel subunit combination (human) (UniProt Q02641); assay: as above
[13] = target: α1B-2α2bβ1-2 human neuronal calcium channel (human) (UniProt Q02641); assay: as above
[14] = target: α1B-1β1-2 human neuronal calcium channel subunit combination (human) (UniProt Q02641); assay: as above
[15] = target: α1B-2β1-3 human neuronal calcium channel subunit combination (human) (UniProt Q02641); assay: as above
[16] = target: α1B-1β1-3 human neuronal calcium channel subunit combination (human) (UniProt Q02641); assay: Bmax of 125I-ω-CgTx GVIA binding, against α1B-1 alone
[17] = target: α1B-1β1-2 human neuronal calcium channel subunit combination (human) (UniProt Q02641); assay: as above
[18] = target: α1B-1α2bβ1-3 human neuronal calcium channel (human) (UniProt Q02641); assay: Bmax of 125I-ω-CgTx GVIA binding, against α1B-2α2bβ1-3
[19] = target: α1B-1α2bβ1-2 human neuronal calcium channel (human) (UniProt Q02641)

125I-ω-CgTx GVIA, sequence (P01522 46-72 limits assumed): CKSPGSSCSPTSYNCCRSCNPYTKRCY
α1B-2α2bβ1-2 human neuronal calcium channel (human), sequence (Q02641 whole entry): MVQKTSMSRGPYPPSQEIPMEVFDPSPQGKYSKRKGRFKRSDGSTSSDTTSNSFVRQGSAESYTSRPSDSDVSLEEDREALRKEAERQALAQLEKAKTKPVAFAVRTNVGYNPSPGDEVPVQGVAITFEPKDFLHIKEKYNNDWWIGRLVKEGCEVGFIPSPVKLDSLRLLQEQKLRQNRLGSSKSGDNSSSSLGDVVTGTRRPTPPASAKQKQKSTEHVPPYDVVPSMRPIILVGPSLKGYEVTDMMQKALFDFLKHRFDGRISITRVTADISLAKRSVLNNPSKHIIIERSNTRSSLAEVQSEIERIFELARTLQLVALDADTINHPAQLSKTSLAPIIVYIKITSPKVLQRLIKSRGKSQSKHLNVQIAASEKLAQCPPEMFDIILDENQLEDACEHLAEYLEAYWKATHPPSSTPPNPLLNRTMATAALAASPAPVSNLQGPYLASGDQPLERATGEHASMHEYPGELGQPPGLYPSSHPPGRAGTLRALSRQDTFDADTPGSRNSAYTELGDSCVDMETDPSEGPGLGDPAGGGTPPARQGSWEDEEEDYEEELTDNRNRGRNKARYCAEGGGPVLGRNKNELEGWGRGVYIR
α1B-2α2bβ1-3 human neuronal calcium channel (human), sequence (Q02641 whole entry): as above
α1B-1α2bβ1-2 human neuronal calcium channel (human), sequence (Q02641 whole entry): as above
α1B-1β1-3 human neuronal calcium channel subunit combination (human), sequence (Q02641 whole entry): as above
α1B-1β1-2 human neuronal calcium channel subunit combination (human), sequence (Q02641 whole entry): as above
α1B-1α2bβ1-3 human neuronal calcium channel (human), sequence (Q02641 whole entry): as above
α1B-2β1-2 human neuronal calcium channel subunit combination (human), sequence (Q02641 whole entry): as above
α1B-2β1-3 human neuronal calcium channel subunit combination (human), sequence (Q02641 whole entry): as above

## 125I-ω-CgTx GVIA (from UniProt P01522 46-72) (peptide)
[1]
  fold change of surface receptor density: 10 fold
[2]
  fold change of surface receptor density: 9 fold
[3]
  fold change of surface receptor density: 13 fold
[4]
  fold change of binding capacity: 2 fold
[5]
  fold change of binding capacity: 2 fold
[6]
  fold change of binding sites per cell: 2.5 fold
[7]
  fold change of surface receptor density: 8 fold
[8]
  Bmax: 37700 sites/cell
  Kd: 0.0443 nM
[9]
  Bmax: 8730 sites/cell
  Kd: 0.0179 nM
[10]
  Bmax: 91000 sites/cell
  Kd: 0.0532 nM
[11]
  Bmax: 45300 sites/cell
  Kd: 0.0549 nM
[12]
  Bmax: 2130 sites/cell
  Kd: 0.0164 nM
[13]
  Bmax: 19400 sites/cell
  Kd: 0.053 nM
[14]
  Bmax: 5760 sites/cell
  Kd: 0.0179 nM
[15]
  Bmax: 2940 sites/cell
  Kd: 0.0222 nM
[16]
  fold change of surface binding: 10 fold
[17]
  fold change of surface binding: 8 fold
[18]
  fold change of binding sites per cell: 2.5 fold

## ω-CgTx GVIA (from UniProt P01522 46-72) (peptide)
[19]
  Kd: 0.0546 nM
  binding capacity (Bmax) (sites per cell): 28700
